# From article PMC10772716
# Tests used:
# Assay in all cases: SEC-MALS
# [1] = molecular target: cMyBP-C C3C6 domains, R820Q variant (human) (UniProt Q14896)
# [2] = molecular target: cMyBP-C C3C6 domains, E542Q variant (human) (UniProt Q14896)
# [3] = molecular target: cMyBP-C C3C6 domains, N755K variant (human) (UniProt Q14896)
substance,measurement,setting,value
"cMyBP-C C3C6 domains, R820Q variant (from UniProt Q14896 1-1274) (domain or fragment)",stoichiometry N,[1],2
"cMyBP-C C3C6 domains, E542Q variant (from UniProt Q14896 1-1274) (domain or fragment)",stoichiometry N,[2],2
"cMyBP-C C3C6 domains, N755K variant (from UniProt Q14896 1-1274) (domain or fragment)",stoichiometry N,[3],2
